For the data set the following is noted: whole UniProt chain shown.
Where [1] appears, read: Bos taurus, pH 7, 25 °C, GdnHCl, Absorbance, MOPS 30 mM, reversible: yes.
Setting [2] is: Bos taurus, pH 7, 25 °C, GdnHCl, Fluorescence, MOPS 30 mM, reversible: yes.
Where [3] appears, read: Bos taurus, pH 7, 25 °C, GdnSCN, Fluorescence, MOPS 30 mM, reversible: YES.
Where [4] appears, read: Bos taurus, pH 7.2, 25 °C, Urea, CD, Phosphate 20 mM, reversible: yes.
Where [5] appears, read: Bos taurus, pH 7.4, Thermal, DSC, sodium phosphate 50 mM, reversible: yes.
The mark [6] stands for this setting: Enterobacteria phage 434, pH 6, 20 °C, Urea, Fluorescence, KH2PO4 25 mM, KCl 100 mM, reversible: yes(>95%).
[7] abbreviates: Enterobacteria phage 434, pH 6, 20 °C, Urea, far-UV CD, KH2PO4 25 mM, KCl 100 mM, reversible: yes(>95%).
Setting [8] is: Enterobacteria phage 434, pH 7, Thermal, DSC, K-phosphate 20 mM.
Setting [9] is: Bos taurus, pH 7.4, 23 °C, GdnHCl, CD, Sodium phosphate 200 mM, reversible: yes.
The mark [10] stands for this setting: Drosophila melanogaster, pH 6.5, 25 °C, Urea, Fluorescence, sodium phosphate 20 mM.

Where “and” joins values, the source holds several entries; their conditions need not be identical. Equal values may be shown once.

For orientation: Tm means the temperature at the midpoint of the melting transition.

B1: Cytochrome b5 wild type, P00171 (protein)
chain: MAEESSKAVKYYTLEEIQKHNNSKSTWLILHYKVYDLTKFLEEHPGGEEVLREQAGGDATENFEDVGHSTDARELSKTFIIGELHPDDRSKITKPSESIITTIDSNPSWWTNWLIPAISALFVALIYHLYTSEN
With B1, the unfolding free energy by setting is: (Bos taurus, pH 7, 10 °C, GdnHCl, Fluorescence, MOPS 30 mM, reversible: yes) 2.77 kcal/mol; under setting [1], 6.57 kcal/mol; under setting [2], 6.09 kcal/mol; under setting [3], 3.2 kcal/mol and 2.7 kcal/mol; (Bos taurus, pH 7, 25 °C, Thermal, DSC, sodium phosphate 50 mM, reversible: yes) 5.98 kcal/mol; under setting [4], 6.57 kcal/mol. Also, the “denaturant midpoint (higher = more stable)” value (from here on “denaturant midpoint”) was 1.52 M (Bos taurus, pH 7, 25 °C, GdmSCN, UV/visible spectrophotometer, MOPS 30mM); 3.05 M under setting [1]; 2.99 M under setting [2]. Further, the denaturant m value is 2.14 kcal/mol/M under setting [1]; 2.05 kcal/mol/M under setting [2]; 2.4 kcal/mol/M and 1.7 kcal/mol/M under setting [3]; 0.93 kcal/mol/M under setting [4]. Moreover, the Tm was determined as 85.5 °C (Bos taurus, pH 7, Thermal, Fluorescence, potassium phosphate 50 mM, reversible: YES); 79.4 °C (Bos taurus, pH 7, Thermal, UV spectroscopy, Sodium phosphate 50 mM, reversible: Yes); 67.6 °C (Bos taurus, pH 7, Thermal, UV/visible spectrophotometer, Potassium phosphate 50mM); 70.7 °C under setting [5]. Also, for the setting “Bos taurus, pH 7.2, Thermal, Absorbance, Phosphate 20 mM, reversible: yes”, the “unfolding enthalpy (van 't Hoff)” value is 82.5 kcal/mol and 33.9 kcal/mol. For the same protein, under setting [5], the “heat capacity change of unfolding” value turned out to be 0.13 kcal/mol/K.

B2: Regulatory protein cro wild type, P03036 (protein)
chain: MQTLSERLKKRRIALKMTQTELATKAGVKQQSIQLIEAGVTKRPRFLFEIAMALNCDPVWLQYGTKRGKAA
Regarding B2, under setting [6], the denaturant m value is 1.05 kcal/mol/M, the “denaturant midpoint” value amounted to 3.35 M and the unfolding free energy is 3.5 kcal/mol. Under setting [7], the denaturant m value came out at 1.02 kcal/mol/M, the “denaturant midpoint” value was 3.5 M and the unfolding free energy stood at 3.6 kcal/mol. Under setting [8], the Tm is 46.4 °C and the “unfolding enthalpy (calorimetric)” value stood at 53.8 kcal/mol.

B3: Beta-crystallin B2 wild type, P02522 (protein)
chain: MASDHQTQAGKPQPLNPKIIIFEQENFQGHSHELNGPCPNLKETGVEKAGSVLVQAGPWVGYEQANCKGEQFVFEKGEYPRWDSWTSSRRTDSLSSLRPIKVDSQEHKITLYENPNFTGKKMEVIDDDVPSFHAHGYQEKVSSVRVQSGTWVGYQYPGYRGLQYLLEKGDYKDSGDFGAPQPQVQSVRRIRDMQWHQRGAFHPSS
B3: the Tm (Bos taurus, pH 7.2, Thermal, fluorescence, sodium phospahte 20 mM, NaCl, transition: 2) is 56.8 °C.

B4: Thiosulfate sulfurtransferase wild type, P00586 (protein)
chain: MVHQVLYRALVSTKWLAESVRAGKVGPGLRVLDASWYSPGTREARKEYLERHVPGASFFDIEECRDKASPYEVMLPSEAGFADYVGSLGISNDTHVVVYDGDDLGSFYAPRVWWMFRVFGHRTVSVLNGGFRNWLKEGHPVTSEPSRPEPAIFKATLNRSLLKTYEQVLENLESKRFQLVDSRAQGRYLGTQPEPDAVGLDSGHIRGSVNMPFMNFLTEDGFEKSPEELRAMFEAKKVDLTKPLIATCRKGVTACHIALAAYLCGKPDVAIYDGSWFEWFHRAPPETWVSQGKGGKA
On to B4, for which, under setting [9], the denaturant m value came to 2.34 kcal/mol/M and the unfolding free energy worked out at 3.39 kcal/mol.

B5: General odorant-binding protein lush wild type, O02372 (protein)
chain: MKHWKRRSSAVFAIVLQVLVLLLPDPAVAMTMEQFLTSLDMIRSGCAPKFKLKTEDLDRLRVGDFNFPPSQDLMCYTKCVSLMAGTVNKKGEFNAPKALAQLPHLVPPEMMEMSRKSVEACRDTHKQFKESCERVYQTAKCFSENADGQFMWP
On to B5, for which, under setting [10], the denaturant m value is 1.24 kcal/mol/M and 1.76 kcal/mol/M and 1.77 kcal/mol/M; the “denaturant midpoint” value is 2.39 M and 2.98 M and 4.11 M; the unfolding free energy is 3.02 kcal/mol and 5.26 kcal/mol and 7.35 kcal/mol.

(Values after FireProtDB.)
